From the DeepSol protein solubility set

Test: soluble on expression in E. coli; label from the status in PepcDB or PDB records
For “SLKTIDMKYLRLLAKEYPTIAKTATEIINLEAIMNLPKGTEHFLSDVHGEYSAFEQVLRNGSGVVKRKIRDIFGAELDDAEINSLSTLIYYPEEKMDLLASETEDLQAWYRTTLFRLIELCQYVASKYTRSKVRKAMPEDFAYILEELLHENYNEDDKKLYYEEILQHIISLGRAEEFISALSLLIQQLVVDHLHIVGDVYDRGPYPDKIMDTLMNYHSLDFQWGNHDILWMGAASGSRVCAANVIRISARYLNLDILEDSYGISLRPLALFADEVYKDDPCTYFQPKNEENINYSNAEITQIARMHKAISIIQFKLEGEIINRRKEFDMDHRLLLQFIDYKKGTIHLKGKEYLLLDSHFPTINPEKPYELTDAERELIGKITAAFKNCRRLQKHVQFLYSKGSMFLTYNGNLLYHGCIPLHEDGTFMEMKLRGEKYAGRSLLEQFEILTREAYVRPTGTKEKKYACDIVWYLWTGAISSLFGKSEMTTFERYFVAEKETHTEEKNPYYKLRNNELICKQILEEFGLDGECGHIINGHTPVKEGKGESPIKANGKMLVIDGGFAKAYHKETNLAGYTLLFNSYGLQLVSHQPFTTKEDAIKNETDILSTRQVIEMEINRKRVRDTDIGAKLSEQAEDLKLLLDAYRNGLLHENR”, the “soluble on expression in E. coli” value was “soluble”. For “ATIKDVAKRANVSTTTVSHVINKTRFVAEETRNAVWAAIKELHYSPSAVARSLKVNHTKSIGLLATSSEAAYFAEIIEAVEKNCFQKGYTLILGNAWNNLEKQRAYLSMMAQKRVDGLLVMCSEYPEPLLAMLEEYRHIPMVVMDAGEAKADFTDAVIDNAFEGGYMAGRYLIERGHREIGVIPGPLERNTGAGRLAGFMKAMEEAMIKVPESWIVQGDFEPESGYRAMQQILSQPHRPTAVFCGGDIMAMGALCAADEMGLRVPQDVSLIGYDNVRNARYFTPALTTIHQPKDSLGETAFNMLLDRIVNKREEPQSIEVHPRLIERRSVADGPFRDYRR”, the “soluble on expression in E. coli” value was “soluble”. For “MISSLAVEFGALRLACTSKIVMATRNMPARGTKPLPRHLWDMSDLEEKTSGQYTHKPLRINRLGGRDPETGRKVNQHIGGGVKFDYFMIDFHRRGPADQGATYDERILEIRRDPNRTCHIALCAGINGKRWILATENMKAGDVISTSGHLSENPVIGVEGNAYPIGSLAAGTVINSIERYPTMDSETFVKAAGTSATIVRHQGDFTVVKLPHKHEFSLHRTCMATVGRLSHADIDGKIFGSAQMHRRFGYKMSSGLFHKKDGYFGRKVRALPPVRILDTPPQAPPPNQRFTLSKKDLSGLHGHAKVHNLIPAGYSTRDYPE”, the “soluble on expression in E. coli” value was “not soluble”. With “MSLAANPWNWFGSSTKVSEQGVGELTASTPLQEQAIADALDGDYRLRSGMKTANGNVVRFFEVMKGDNVAMVINGDQGTISRIDVLDSDIPADTGVKIGTPFSDLYSKAFGNCQKADGDDNRAVECKAEGSQHISYQFSGEWRGPEGLMPSDDTLKNWKVSKIIWRREGHHHHHH” the “soluble on expression in E. coli” value was “soluble”. With “MDNLKAELAQAKIDIDQLEKKQWETLEQLVMRDKLIEQCSLHTEILQKDFRESEARIIQLEQQLLEPGECGSELRATIKNQEELLKKQSEEIERCKEESRMLIQQKEEMENIHSEEIFGKNKTISNLRKQIDGDVERKKAKIRTLRKELCSADMNTGKMCRRAKRAEDRIAKLESDLEEERQKHVGQDISHILDQHNSTVMALEMQLANTQQEKATLNTSVEDLKLRTEEWKHNLLGQFEVLTANSKRECESKEEQIANHKREIMEKDSKIECLMELIQNSERSAEIQKMHDALREKDLKISELSEKLQGLLINQEGEADDTMIDQDDDNKSTHSEDSDGWDKINAI” the “soluble on expression in E. coli” value was “not soluble”. With “MSLGVSFNIMCPNSSIYSDEKSRVLVDKTKSGKVRPWREKKIANVDYFELLHILEFKKAERVKDCAEILEYKQNRETGERKLYRVWFCKSRLCPMCNWRRAMKHGIQSQKVVAEVIKQKPTVRWLFLTLTVKNVYDGEELNKSLSDMAQGFRRMMQYKKINKNLVGFMRATEVTINNKDNSYNQHMHVLVCVEPTYFKNTENYVNQKQWIQFWKKAMKLDYDPNVKVQMIRPKNKYKSDIQSAIDETAKYPVKDTDFMTDDEEKNLKRLSDLEEGLHRKRLISYGGLLKEIHKKLNLDDTEEGDLIHTDDDEKADEDGFSIIAMWNWERKNYFIKEEGHHHHHH” the “soluble on expression in E. coli” value was “soluble”. With “SNAKNRLGTKALNFTYTLDSGVKGTLYQFPAEYTLLFINNPGCHACAEMIEGLKASPVINGFTAAKKLKVLSIYPDEELDEWKKHRNDFAKEWTNGYDKELVIKNKNLYDLRAIPTLYLLDKNKTVLLKDATLQKVEQYLAE” the “soluble on expression in E. coli” value was “soluble”. For “MYRSHFIADVTPEYDGKEVIWAGWVHLLRDLGGKKFIILRDKTGLGQVVVDKNSSAFGISQELTQESVIQVRGIVKADKRAPRGIELHAEEITLLSKAKAPLPLDVSGKVKADIDTRLRERVLDLRRQEMQAVIKIQSLALKAFRETLYKEGFIEIFTPKIIASATEGGAQLFPVIYFGKEAFLAQSPQLYKELMAGVVERVFEVAPAWRAEESDTPFHLAEFISMDVEMAFADYNDVMQLLEKILHNIVKTIKEEGKEELKILNYEPPEVKIPIKRLKYTEAIEILRSKGYNIKFGDDIGTPELRILNEELKEDLYFIVDWPSDARPFYTKSKSENPELSESFDLIYKFLEIVSGSTRNHKREVLEEALKKKGLKPESFEFFLKWFDYGMPPHAGFGMGLARLMVMLTGIQSVKEIVPFPRDKKRLTP”, the “soluble on expression in E. coli” value was “soluble”. For “MAEHDITPEVTISKTQRRYKVGYVRARHQDRKTGIARYYSQHPSLHLKGDWLKEAGFDTGRGVTVKISEGGLTIIADSDEVQELRDGMFSVLNES”, the “soluble on expression in E. coli” value was “not soluble”. In the case of “MAHHHHHHMTAALNRKFDLLQKSGTCPSYLLDVLTLLVAHANETELFKQELRSAPFENAAPPLRADRGMVAAAAPQPEMGTQTVTQPEAPGTEKEVLLAAERTLRAYASDLRKINDIAMATSSKKLREMKMSNFTEMAAFRDRVVSDAVDRAREELELLRMGWLESMNTEVERAKMEVHKVGLSSQKALHKMLEGYRDYVSDGFRLLKTEPLEVMHRAMAECAFCVERLKIMEQQVVPRIEIDALCGRLKSVERVIAQMLKKRHSSGVVDDEISVVPTAGPSETGASTAAAGDDRPLGLRLRDGGNDVEGLIVTEVAPNSLASKARISPGQIISHVGDALVTRRDDFTTAMQKTGSAAKLTIYDPETAVVRILTLKP”, the “soluble on expression in E. coli” value was “soluble”. In the case of “MPKRTDIKSILILGAGPIVIGQACEFDYSGAQACKALREEGYRVILVNSNPATIMTDPEMADATYIEPIHWEVVRKIIEKERPDAVLPTMGGQTALNCALELERQGVLEEFGVTMIGATADAIDKAEDRRRFDVAMKKIGLETARSGIAHTMEEALAVAADVGFPCIIRPSFTMGGSGGGIAYNREEFEEICARGLDLSPTKELLIDESLIGWKEYEMEVVRDKNDNCIIVCSIENFDAMGIHTGDSITVAPAQTLTDKEYQIMRNASMAVLREIGVETGGSNVQFAVNPKNGRLIVIEMNPRVSRSSALASKATGFPIAKVAAKLAVGYTLDELMNDITGGRTPASFEPSIDYVVTKIPRFNFEKFAGANDRLTTQMKSVGEVMAIGRTQQESLQKALRGLEVGATGFDPKVSLDDPEALTKIRRELKDAGADRIWYIADAFRAGLSVDGVFNLTNIDRWFLVQIEELVRLEEKVAEVGITGLNADFLRQLKRKGFADARLAKLAGVREAEIRKLRDQYDLHPVYKRVDTCAAEFATDTAYMYSTYEEECEANPSTDREKIMVLGGGPNRIGQGIEFDYCCVHASLALREDGYETIMVNCNPETVSTDYDTSDRLYFEPVTLEDVLEIVRIEKPKGVIVQYGGQTPLKLARALEAAGVPVIGTSPDAIDRAEDRERFQHAVERLKLKQPANATVTAIEMAVEKAKEIGYPLVVRPSYVLGGRAMEIVYDEADLRRYFQTAVSVSNDAPVLLDHFLDDAVEVDVDAICDGEMVLIGGIMEHIEQAGVHSGDSACSLPAYTLSQEIQDVMRQQVQKLAFELQVRGLMNVQFAVKNNEVYLIEVNPRAARTVPFVSKATGVPLAKVAARVMAGKSLAEQGVTKEVIPPYYSVKEVVLPFNKFPGVDPLLGPEMRSTGEVMGVGRTFAEAFAKAQLGSNSTMKKHGRALLSVREGDKERVVDLAAKLLKQGFELDATHGTAIVLGEAGINPRLVNKVHEGRPHIQDRIKNGEYTYIINTTSGRRAIEDSRVIRRSALQYKVHYDTTLNGGFATAMALNADATEKVISVQEMHAQIK”, the “soluble on expression in E. coli” value was “soluble”. For “MSLSLSTIICIGMAGSGKTTFMQRLNSHLRAEKTPPYVINLDPAVLRVPYGANIDIRDSIKYKKVMENYQLGPNGAIVTSLNLFSTKIDQVIGLVEQKKDKFQNCIIDTPGQIECFVWSASGAIITESFASSFPTVIAYIVDTPRNSSPTTFMSNMLYACSILYKTKLPMIVVFNKTDVCKADFAKEWMTDFESFQAAIKEDQDLNGDNGLGSGYMSSLVNSMSLMLEEFYSQLDVVGVSSFTGDGFDEFMQCVDKKVDEYDQYYKQEREKALNLKKKKEEMRKQKSLNGLMKDLGLNEKSSAAASDNDSIDAISDLEEDANDGLVDRDEDEGVEREYTFPGEERTKGEVNENSAPDLQRRYQEAMQQVGKTASSETAENIAKYIRNEGHHHHHH”, the “soluble on expression in E. coli” value was “soluble”. With “MTTIEIDAPAGPIDALLGLPPGQGPWPGVVVVHDAVGYVPDNKLISERIARAGYVVLTPNMYARGGRARCITRVFRELLTKRGRALDDILAARDHLLAMPECSGRVGIVGFCMGGQFALVLSPRGFGATAPFYGTPLPRHLSETLNGACPIVASFGTRDPLGIGAANRLRKVTAAKNIPADIKSYPGAGHSFANKLPGQPLVRIAGFGYNEAATEDAWRRVFEFFGQHLRAGSPGEP” the “soluble on expression in E. coli” value was “soluble”. For “QLTRERLTATSRYKLSSSDTFRVIGNPEPREGKLRMQVQLTGGSSPSYILYIRHEGEYEPVARGDMLKLRKFYARSVEEWEQKAPAMGRYMAGKGLSGSLHAKTGDVEILSTAKGPFSLRQKALDLSDRLAATLYELSPSLLSDSRRAMLEAMCLGREGEAPDVRRKFVAAGVAH”, the “soluble on expression in E. coli” value was “not soluble”. In the case of “MSLKNIVFCGLSSRAFSMFIKPLMERFSTHYEITGLLDADPKRFAVCKKKFPELAHVPEFSEDAFDEMMRVSKPDIVIVAGRDDTHVAYIVKSLQWNTDVITEKPMVTTVQDANRVLEAEAKSEGKVTVAFNYRYSPFHRKIKEMILDGKIGRVTSVDLNWYIDTYHGASYFKRWNRSRQFSGGLSVHKSTHHFDLVNWWLGQNPEEVFAYGALNYYGPDSEWNPLPEEDGRFCGTCRVKEKCHYYSRWHPRSSKASIKDDHLEAGDQSSLYTAYRPDACIFDEEIDIEDTYVAAVKYDGGALLSYSIIFSAPYEGYRLTINGTKGRIESNEFHEPSRIPFAFPEQTIEYYPLFESKQTIQVVKNEGGHGGGDPLLLEDLFLGKDPLRRYDILAGAEAGAYSIAVGEGMWRSVAEKKPIGMKELFQMQNEGHHHHHH”, the “soluble on expression in E. coli” value was “soluble”. With “MGSDKIHHHHHHMNELQNFNFEGNEVRTVLINDEPYFVGKDVATAIGYQNTRKAIKDHVKTKYMREERIVTPSGTQTMTVISEPGIYQLAGQSKLPTAEPFQDWIYEEVLPSIRKHGAYMTDEKIEEALLNPDTIISLATQLKNEREKVEVERNGRLIAEQRVEELQPKADYYDQILSNKGVVTVTSIAKNYGMTAPELNKLLNRLGVQYSQSGSWYLYKKYQKNGYTHTIPVPYSHRDGRPDIKPQTKWTQKGHIFIYQLLKEHGILPMIEMKDESAV” the “soluble on expression in E. coli” value was “not soluble”. With “MIKQNSFVPYPEAMLPKGFKYPQSYLKLAQSTHAINYDEQYSFPWWFENAESNISEVIDIYFEITGIPNLLPFARNQEWAACFDISDKSGNPKIIVVNLDNTKYYETFENFDTWLKEAENDGW” the “soluble on expression in E. coli” value was “soluble”. In the case of “MFTIEHLNFAWLQVRAGSKSAGVDGISVDLFESMATEQLQNIAYQLKEETYTANPAKGFYIPKKNGTKRLIGIHTVRDRIIQRLLLDELYFPLEDTFLDCSYAYRPGHSIQQAVQHLYGYYQYQPKWIIKADVADFFDNLSWALLLTYLEELSLEPSLLQLLEQQLKSGIIIAGQYRNFGKGVLQGGILSGALANLYLTSFDRKCLSQGINLVRYGDDFVIACNSWLEANRILDKITGWLGEVYLTLQPEKTQIFTPNDEFTFLGYRFAGGEVYAPPPPEPVRPGEWVINDSGTPYFRLKPKPRKPVSLEHHHHHH”, the “soluble on expression in E. coli” value was “not soluble”.
